The test deals with CD40 protein displayed on cell surface (UniProt P25942). The experiment in a line: cell-based or functional assay.
Chain of CD40 protein displayed on cell surface (P25942 21-277 limits assumed): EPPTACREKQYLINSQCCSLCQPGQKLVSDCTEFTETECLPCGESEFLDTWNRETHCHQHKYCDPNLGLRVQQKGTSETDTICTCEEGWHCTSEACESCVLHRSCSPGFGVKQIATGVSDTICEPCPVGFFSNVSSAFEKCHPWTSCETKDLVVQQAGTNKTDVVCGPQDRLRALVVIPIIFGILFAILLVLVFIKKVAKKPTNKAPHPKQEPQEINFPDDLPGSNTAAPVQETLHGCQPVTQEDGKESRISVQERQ

As to CP-870893 (antibody), the EC50 in activating MoDC assessed by CD86 expression turned out to be 4.2 nM and the EC50 in activating monocyte derived dendritic cell (MoDC) assessed by CD80 expression was 5 nM.

These data come from patent publication US20220089758A1.
